Laboratory results published in patent US20190367617A1 (AMPSOURCE BIOPHARMA SHANGHAI, published 2019).
Positions count from the first letter of the chain named.

B1: mouse-human chimeric antibody AB12M2 (antibody, V domains shown)
VH: EVKLVESGGGLVKPGGSLKLSCAASGFTFSSYGMSWVRQTPEKRLEWVATISGGGRDTYYPDSVKGRFTISRDNAKNNLYLQMSSLRSEDTALYYCARQKDTSWFVHWGQGTLVTVSA
VL: not shown
B2: humanized antibody AB12M3 (antibody, V domains shown)
VH: B1 VH with K3Q, K13Q, K19R, T40A, E42G, R44G, S84N, S88A, A118S
VL: EIVLTQSPATLSLSPGERATLSCRASESVDDYGISFMNWFQQKPGQAPKLLIYVASNQGSGVPARFSGSGSGTDFSLTISSLEPDDTAMYFCQQSKEVPWTFGGGTKVEIK
notes: the description speaks of human IgG4 or IgG1 and human kappa only as embodiments
B3: humanized antibody AB12M4 (antibody, V domains shown)
VH: B1 VH with K19R
VL: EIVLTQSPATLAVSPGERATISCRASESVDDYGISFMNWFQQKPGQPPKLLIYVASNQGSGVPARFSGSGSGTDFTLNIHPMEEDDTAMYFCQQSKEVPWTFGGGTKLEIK
B4: murine monoclonal antibody AB12N1 (antibody, mouse IgG1, V domains shown)
VH: QVQLVESGGGVVQPGRSLRLDCKASGITFSNSGMHWVRQAPGKGLEWVAVIWYDGSKRYYADSVKGRFTISRDNSKNTLFLQMNSLRAEDTAVYYCATNDDYWGQGTLVTV
VL: EIVLTQSPATLSLSPGERATLSCRASQSVSSYLAWYQQKPGQAPRLLIYDASNRATGIPARFSGSGSGTDFTLTISSLEPEDFAVYYCQQSSNWPRTFGQGTKVEIK
notes: subclass identified as mouse IgG1 (Kappa), purified from hybridoma supernatant; also called antibody of hybridoma clone #22
B5: humanized antibody AB12N3 (antibody, V domains shown)
VH: QVQLVESGGGVVQPGRSLRLSCAASGITFSNSGMHWVRQAPGKGLEWVAVWYDGSKRYYADSVKGRFTISRDNSKNTLYLQMNSLRAEDTAVYYCATNDDYWGQGTLVTV
VL: B4 VL
B6: humanized antibody AB12N4 (antibody, V domains shown)
VH: B4 VH with D21S, K23A, F80Y
VL: B4 VL
B7: humanized antibody AB12N5 (antibody, V domains shown)
VH: B5 VH with Y79F
VL: B4 VL

How the values were obtained:
[1] = target: T1, mouse PD-1 (Sino Biological Inc., Beijing, China) (mouse, UniProt Q02242 25-167, limits assumed); assay: indirect ELISA, mouse PD-1 coated, HRP goat anti-human IgG
T1 sequence (looked up): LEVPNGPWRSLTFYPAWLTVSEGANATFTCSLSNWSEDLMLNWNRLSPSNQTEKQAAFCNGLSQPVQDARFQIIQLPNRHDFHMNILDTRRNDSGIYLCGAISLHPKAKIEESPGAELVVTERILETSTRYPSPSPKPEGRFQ
Text: (§1) The HRP-labeled goat anti-human IgG antibody (The Jackson Laboratory) was used as the secondary antibody, and the detailed assay procedure was as described in Example 2.

[2] = target: T2, Human PD-1 (Sino Biological Inc., Beijing, China) (human, UniProt Q15116 25-167); assay: indirect ELISA, human PD-1 coated at 0.1 µg/mL, HRP goat anti-human IgG
T2 construct: also called hPD-1
Text: as §1

[3] = target: T2, Human PD-1 (Sino Biological Inc., …); assay: competitive ELISA, human PD-1 coated at 0.1 µg/mL, competitor Opdivo-HRP
Procedure: (§2) Human PD-1 (Sino Biological Inc., Beijing, China) was diluted to 0.1 μg/mL with PBS buffer and added to the 96-well plate at a volume of 100 μL/well and allowed to stand overnight at room temperature. The coating solution was removed, 200 μL of PBST/1% no-fat milk was added to each well and incubated at room temperature for 1 h for blocking. The blocking solution was removed and the plate was washed 3 times with PBST.

[4] = target: T3, human PD-1/His (Sino Biological Inc.) (human, UniProt Q15116 25-170); assay: affinity and kinetic constants; method not restated, taken as BLI of Example 3.4
T3 construct: extracellular domain; Bought protein; also called extracellular domain fragment of PD-1 protein containing His tag; not shown: His tag

[5] = target: T2, Human PD-1 (Sino Biological Inc., …); assay: competitive ELISA, human PD-1 coated at 0.1 µg/mL, competitor Keytruda-HRP
Procedure: as §2

[6] = target: T4, PD-1 expressed on the surface of activated human T cells (human, UniProt Q15116 25-288); assay: flow cytometry on activated human T cells, FITC goat anti-human IgG
T4 construct: whole, on cells
Procedure: Fresh mononuclear cells were obtained from human peripheral blood by density gradient centrifugation (Lymphoprep™, human lymphocyte separation solution, […]), and high purity T lymphocytes were obtained using T cell isolation reagents ([…]). The T lymphocytes were stimulated with 5 μg/mL of the anti-CD3 antibody for 48 h, and cultured for 7 days after addition of 250 IU/mL of human IL-2. A large number of activated T lymphocytes were then obtained. […] The FITC signals were detected by flow cytometry.

[7] = target: T3, human PD-1/His (Sino Biological Inc.); assay: competitive ELISA: PD-1/His coated at 2 µg/mL, blocks biotin-labeled PD-L1/Fc
Procedure: The extracellular domain fragment of PD-1 protein containing His tag was coated onto the 96-well ELISA plate.
PD-1/His was diluted to 2 μg/mL with PBS buffer, pH 7.2, and added to the 96 well ELISA plate at 100 μL per well and incubated with shaking at room temperature for 1 h. The PBS buffer was aspirated from the 96-well ELISA plate. 200 μL of PBST(PBS containing 0.05% Tween 20, pH 7.4)/1% no-fat milk was added to each well and incubated at room temperature for 1 h for blocking. The plate was washed 3 times with PBST. 50 μL of the anti-PD-1 antibody to be tested was added to each well, which was diluted with the blocking solution to an appropriate concentration. […] Incubating at room temperature for 1 h. The plate was washed 3 times with PBST. 100 μL of SA-Avidin-HRP (HRP-labeled streptavidin) diluted at 1:250 ratio with the blocking solution was added to each well, and incubated at room temperature for 1 h. Washing the plate 3 times with PBST. 100 μL of the TMB substrate solution was added to each well and incubated at room temperature for 5-10 min. Adding 50 μL of 0.2 M sulfuric acid to each well to terminate the reaction. The absorbance values were read at 450 nm in a microplate reader.

[8] = target: T5, PD-1 overexpressed on the surface of CHO cells (Homo sapiens (Human), UniProt Q15116 25-288); assay: flow cytometry on PD-1-overexpressing CHO cells, FITC goat anti-human IgG
T5 construct: also called PD-1-overexpressing CHO cells
Text: FACS (fluorescence activated cell sorting) is a test used for detection of the binding between proteins and cells. The test was used to detect the binding activity of the humanized anti-PD-1 antibodies of the present invention to native PD-1 expressed on the cell surface. The cells used in the test were PD-1-overexpressing CHO cells.

[9] = target: T6, human ICOS/Fc (Sino Biological Inc.) (human, UniProt Q9Y6W8 21-141, limits assumed); assay: indirect ELISA, human ICOS/Fc coated at 0.1 µg/mL, HRP goat anti-mouse IgG
T6 construct: Bought protein; not shown: Fc
T6 sequence (looked up): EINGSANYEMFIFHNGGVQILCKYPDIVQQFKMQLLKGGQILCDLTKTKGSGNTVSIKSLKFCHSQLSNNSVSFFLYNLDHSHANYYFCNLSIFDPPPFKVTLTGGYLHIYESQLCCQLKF
Procedure: (§3) Human PD-1/His, human ICOS/Fc, human CTLA4/His, human CD28/Fc, cynomolgus monkey PD-1/Fc, and mouse PD-1/His (all from Sino Biological Inc., Beijing, China) were diluted with PBS buffer to 0.1 μg/mL, and added to the 96-well plate at a volume of 100 μL/well and placed at 16° C. for 16 to 20 h. The PBS buffer was aspirated from the 96-well plate, and the plate was washed once with PBST (PBS containing 0.05% Tween 20, pH 7.4). 200 μL of PBST/1% no-fat milk was added to each well and incubated at room temperature for 1 h for blocking. The blocking solution was removed and the plate was washed 3 times with PBST. 100 μL of the anti-PD-1 antibody to be tested was added to each well, and incubated at room temperature for 1.5 h. The reaction solution was removed and the plate was washed 3 times with PBST. 50 μL of the HRP-labeled goat anti-mouse IgG secondary antibody (The Jackson Laboratory) diluted (dilution ratio 1:4000) was added to each well. Incubated at room temperature for 1 h. The plate was washed 3 times with PBST. 100 μL of the TMB was added to each well and incubated at room temperature for 5-10 min 50 μL of 0.2 M sulfuric acid was added to each well to terminate the reaction. Absorbance values were read at dual wavelengths of 450/620 nm in a microplate reader.

[10] = target: T7, mouse PD-1/His (Sino Biological Inc.) (mouse, UniProt Q02242 25-167); assay: indirect ELISA, mouse PD-1/His coated at 0.1 µg/mL, HRP goat anti-mouse IgG
T7 construct: Bought protein; not shown: His tag
T7 sequence (looked up): T1 sequence (looked up)
Procedure: as §3

[11] = target: T8, human CTLA4/His (Sino Biological Inc.) (human, UniProt P16410 36-162, limits assumed); assay: indirect ELISA, human CTLA4/His coated at 0.1 µg/mL, HRP goat anti-mouse IgG
T8 construct: Bought protein; not shown: His tag
Procedure: as §3

[12] = target: T9, cynomolgus monkey PD-1/Fc (Sino Biological Inc.) (cynomolgus monkey, UniProt B0LAJ3 25-170); assay: indirect ELISA, cynomolgus monkey PD-1/Fc coated at 0.1 µg/mL, HRP goat anti-mouse IgG
T9 construct: Bought protein
Procedure: as §3

T3 sequence (Q15116 25-170): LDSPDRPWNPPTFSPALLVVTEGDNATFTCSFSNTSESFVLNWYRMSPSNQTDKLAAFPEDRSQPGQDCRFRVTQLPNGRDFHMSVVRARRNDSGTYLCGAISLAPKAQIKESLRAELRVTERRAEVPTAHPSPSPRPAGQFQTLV
T2 sequence (Q15116 25-167 limits assumed): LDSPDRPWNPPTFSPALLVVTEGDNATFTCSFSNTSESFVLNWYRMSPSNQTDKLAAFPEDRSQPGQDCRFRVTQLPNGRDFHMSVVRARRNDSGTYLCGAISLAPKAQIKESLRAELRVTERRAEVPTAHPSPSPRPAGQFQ
T5 sequence (Q15116 25-288 limits assumed): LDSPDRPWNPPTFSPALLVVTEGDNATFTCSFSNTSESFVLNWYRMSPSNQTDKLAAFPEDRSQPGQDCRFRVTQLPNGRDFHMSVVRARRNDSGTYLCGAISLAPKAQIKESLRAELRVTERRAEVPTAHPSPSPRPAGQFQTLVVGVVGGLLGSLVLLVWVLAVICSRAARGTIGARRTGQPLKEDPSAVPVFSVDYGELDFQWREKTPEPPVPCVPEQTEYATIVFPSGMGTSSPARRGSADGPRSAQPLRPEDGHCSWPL
T4 sequence (Q15116 25-288): as the sequence (Q15116 25-288 limits assumed) above
T8 sequence (P16410 36-162 limits assumed): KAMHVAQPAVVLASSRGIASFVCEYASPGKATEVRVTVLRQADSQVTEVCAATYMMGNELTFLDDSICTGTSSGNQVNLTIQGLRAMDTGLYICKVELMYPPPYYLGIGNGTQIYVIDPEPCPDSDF
T9 sequence (B0LAJ3 entry or part of it limits assumed): as the sequence (Q15116 25-170) above, with D2E, P10A, V19L, T35A, Q75R, T144A counted along it

Binder | binding result [1] | EC50 (read off the curve) [2] [µg/mL] | IC50 (read off the curve) [3] [µg/mL] | Kd [4] [nM] | koff [4] [s⁻¹] | kon [4] [M⁻¹ s⁻¹] | IC50 (read off the curve) [5] [µg/mL] | EC50 (read off the curve) [6] [nM] | IC50 [7] [nM] | EC50 (read off the curve) [8] [nM] | binding result [9] | binding result [10] | binding result [11] | binding result [12]
B1 | no binding (tested: 10 µg/ml) | ~0.003 | ~0.08 | < 0.001 | < 1e-07 | 198000 | ~0.07 |  |  |  |  |  |  | 
B2 | no binding (tested: 10 µg/ml) | ~0.003 | ~0.1 | < 0.001 | < 1e-07 | 226000 | ~0.09 | ~0.8 | 0.114 | ~1 |  |  |  | 
B3 | no binding (tested: 10 µg/ml) | ~0.003 | ~0.1 | < 0.001 | < 1e-07 | 213000 | ~0.09 |  | 0.096 | ~1 |  |  |  | 
B4 |  |  |  |  |  |  |  |  |  |  | no binding (tested: 10 µg/mL) | no binding (tested: 10 µg/mL) | no binding (tested: 10 µg/mL) | no binding (tested: 10 µg/mL)
B5 |  |  |  | 0.365 | 2.28e-05 | 62400 |  |  |  |  |  |  |  | 
B6 |  |  |  | 0.378 | 2.41e-05 | 63700 |  |  |  |  |  |  |  | 
B7 |  |  |  | 0.414 | 2.56e-05 | 61900 |  |  |  |  |  |  |  | 
